Reference: publication PMC5461201

Legend:
[1] = target: FLAG-ADAR1p110-T/S-to-D (phosphomimetic mutant) (human); experiment: pull-down
[2] = target: FLAG-ADAR1p110-T/S-to-A (phosphorylation inhibitory mutant) (human); experiment: pull-down

binding efficiency (judged from unbound His-Xpo5 in flow-through) [1]: 70%
fold amount bound against ADAR1p110-T/S-to-A [1]: 10 to 20 fold
binding efficiency (judged from unbound His-Xpo5 in flow-through) [2]: < 10%
Substance: Xpo5-RanGTP complex (His-Xpo5 with His-RanQ69L and GTP, preassembled with VARdm RNA) (from UniProt Q9HAV4 1-1204; P62826 1-216)
